Test results published in patent US20240294593A1 (Genentech, published 2024).
Numbering of substitutions follows the chain as printed. Names and notes keep the numbering of the source.

B1: H1.1_L1 (antibody, human IgG1, kappa, V domains shown)
VH: EVQLVESGGGLVQPGGSLRLSCAASGFTFTSFGMHWVRQAPGKGLEWVSYISSGSSIIYYADSVKGRFTISRDNAKNSLYLQMNSLRAEDTAVYYCARGGRLVWSPDYWGQGTLVTVSS
VL: DIVMTQSPDSLAVSLGERATINCKSSQSLLNSGNQKNYLTWYQQKPGQPPKLLIYWASTRESGVPDRFTGSGSGTDFTLTISSLQAEDVAVYYCQNDYSYPFTFGSGTKLEIKR
notes: also called VH-S30T; Kabat 30T; copies: 2 + 2
B2: H1.3_L1 (antibody, human IgG1, kappa, V domains shown)
VH: B1 VH with T30Q
VL: B1 VL
notes: also called VH-S30Q; Kabat 30Q; copies: 2 + 2
B3: H1.7_L1 (antibody, human IgG1, kappa, V domains shown)
VH: B1 VH with T30K
VL: B1 VL
notes: also called VH-S30K; Kabat 30K; copies: 2 + 2
B4: H1.23_L1 (antibody, human IgG1, kappa, V domains shown)
VH: B1 VH with T30S, F32Q
VL: B1 VL
notes: also called VH-F34Q; Kabat 32Q
B5: H1.20_L1 (antibody, human IgG1, kappa, V domains shown)
VH: B1 VH with T30S, F32W
VL: B1 VL
notes: also called VH-F34W; Kabat 32W; copies: 2 + 2
B6: H1.13_L1 (antibody, human IgG1, kappa, V domains shown)
VH: B1 VH with T30S, S31V
VL: B1 VL
notes: also called VH-S31V; Kabat 31V; copies: 2 + 2
B7: H1.8_L1 (antibody, human IgG1, kappa, V domains shown)
VH: B1 VH with T30Y
VL: B1 VL
notes: also called VH-S30Y; Kabat 30Y
B8: H1.14_L1 (antibody, human IgG1, kappa, V domains shown)
VH: B1 VH with T30S, S31H
VL: B1 VL
notes: also called VH-S31H; Kabat 31H; copies: 2 + 2
B9: H1.18_L1 (antibody, human IgG1, kappa, V domains shown)
VH: B1 VH with T30S, F32Y
VL: B1 VL
notes: also called VH-F34Y; Kabat 32Y; copies: 2 + 2
B10: H1.10_L1 (antibody, human IgG1, kappa, V domains shown)
VH: B1 VH with T30S, S31A
VL: B1 VL
notes: also called VH-S31A; Kabat 31A; copies: 2 + 2
B11: H1.17_L1 (antibody, human IgG1, kappa, V domains shown)
VH: B1 VH with T30S, S31Y
VL: B1 VL
notes: also called VH-S31Y; Kabat 31Y; copies: 2 + 2
B12: H1.24_L1 (antibody, human IgG1, kappa, V domains shown)
VH: B1 VH with T30S, F32S
VL: B1 VL
notes: also called VH-F34S; Kabat 32S; copies: 2 + 2
B13: H1.5_L1 (antibody, human IgG1, kappa, V domains shown)
VH: B1 VH with T30V
VL: B1 VL
notes: also called VH-S30V; Kabat 30V; copies: 2 + 2
B14: H1.6_L1 (antibody, human IgG1, kappa, V domains shown)
VH: B1 VH with T30H
VL: B1 VL
notes: also called VH-S30H; Kabat 30H; copies: 2 + 2
B15: H1.21_L1 (antibody, human IgG1, kappa, V domains shown)
VH: B1 VH with T30S, F32I
VL: B1 VL
notes: also called VH-F34I; Kabat 32I; copies: 2 + 2
B16: H1.4_L1 (antibody, human IgG1, kappa, V domains shown)
VH: B1 VH with T30G
VL: B1 VL
notes: also called VH-S30G; Kabat 30G; copies: 2 + 2
B17: H1.11_L1 (antibody, human IgG1, kappa, V domains shown)
VH: B1 VH with T30S, S31Q
VL: B1 VL
notes: also called VH-S31Q; Kabat 31Q; copies: 2 + 2
B18: H1.12_L1 (antibody, human IgG1, kappa, V domains shown)
VH: B1 VH with T30S, S31G
VL: B1 VL
notes: also called VH-S31G; Kabat 31G; copies: 2 + 2
B19: H1.15_L1 (antibody, human IgG1, kappa, V domains shown)
VH: B1 VH with T30S, S31D
VL: B1 VL
notes: also called VH-S31D; Kabat 31D; copies: 2 + 2
B20: H1.22_L1 (antibody, human IgG1, kappa, V domains shown)
VH: B1 VH with T30S, F32H
VL: B1 VL
notes: also called VH-F34H; Kabat 32H; copies: 2 + 2
B21: H1.9_L1 (antibody, human IgG1, kappa, V domains shown)
VH: B1 VH with T30S, S31T
VL: B1 VL
notes: also called VH-S31T; Kabat 31T; copies: 2 + 2
B22: H1.16_L1 (antibody, human IgG1, kappa, V domains shown)
VH: B1 VH with T30S, S31K
VL: B1 VL
notes: also called VH-S31K; Kabat 31K; copies: 2 + 2
B23: H1.2_L1 (antibody, human IgG1, kappa, V domains shown)
VH: B1 VH with T30A
VL: B1 VL
notes: also called VH-S30A; Kabat 30A; copies: 2 + 2
B24: H1.64_L1 (antibody, human IgG1, kappa, V domains shown)
VH: B1 VH with T30S, S55Q
VL: B1 VL
notes: also called VH-S59Q; Kabat 54; copies: 2 + 2
B25: H1.69_L1 (antibody, human IgG1, kappa, V domains shown)
VH: B1 VH with T30S, S55Y
VL: B1 VL
notes: also called VH-S59Y; Kabat 54; copies: 2 + 2
B26: H1.65_L1 (antibody, human IgG1, kappa, V domains shown)
VH: B1 VH with T30S, S55G
VL: B1 VL
notes: also called VH-S59G; Kabat 54; copies: 2 + 2
B27: H1.70_L1 (antibody, human IgG1, kappa, V domains shown)
VH: B1 VH with T30S, S55E
VL: B1 VL
notes: also called VH-S59E; Kabat 54; copies: 2 + 2
B28: H1.61_L1 (antibody, human IgG1, kappa, V domains shown)
VH: B1 VH with T30S, G54Y
VL: B1 VL
notes: also called VH-G56Y; Kabat 53; copies: 2 + 2
B29: H1.72_L1 (antibody, human IgG1, kappa, V domains shown)
VH: B1 VH with T30S, S56A
VL: B1 VL
notes: also called VH-S60A; Kabat 55; copies: 2 + 2
B30: H1.62_L1 (antibody, human IgG1, kappa, V domains shown)
VH: B1 VH with T30S, S55T
VL: B1 VL
notes: also called VH-S59T; Kabat 54; copies: 2 + 2
B31: H1.71_L1 (antibody, human IgG1, kappa, V domains shown)
VH: B1 VH with T30S, S56T
VL: B1 VL
notes: also called VH-S60T; Kabat 55; copies: 2 + 2
B32: H1.63_L1 (antibody, human IgG1, kappa, V domains shown)
VH: B1 VH with T30S, S55A
VL: B1 VL
notes: also called VH-S59A; Kabat 54; copies: 2 + 2
B33: H1.66_L1 (antibody, human IgG1, kappa, V domains shown)
VH: B1 VH with T30S, S55V
VL: B1 VL
notes: also called VH-S59V; Kabat 54; copies: 2 + 2
B34: H1.58_L1 (antibody, human IgG1, kappa, V domains shown)
VH: B1 VH with T30S, G54H
VL: B1 VL
notes: also called VH-G56H; Kabat 53; copies: 2 + 2
B35: H1.68_L1 (antibody, human IgG1, kappa, V domains shown)
VH: B1 VH with T30S, S55K
VL: B1 VL
notes: also called VH-S59K; Kabat 54; copies: 2 + 2
B36: H1.57_L1 (antibody, human IgG1, kappa, V domains shown)
VH: B1 VH with T30S, G54Q
VL: B1 VL
notes: also called VH-G56Q; Kabat 53Q; copies: 2 + 2
B37: H1.60_L1 (antibody, human IgG1, kappa, V domains shown)
VH: B1 VH with T30S, G54L
VL: B1 VL
notes: also called VH-G56L; Kabat 53; copies: 2 + 2
B38: H1.59_L1 (antibody, human IgG1, kappa, V domains shown)
VH: B1 VH with T30S, G54K
VL: B1 VL
notes: also called VH-G56K; Kabat 53; copies: 2 + 2
B39: H1.67_L1 (antibody, human IgG1, kappa, V domains shown)
VH: B1 VH with T30S, S55H
VL: B1 VL
notes: also called VH-S59H; Kabat 54; copies: 2 + 2

Target: T1, human PD-1-His (human, UniProt Q15116 25-167, limits assumed)
T1 construct: Antigen of the Octet assays; not shown: His tag
Experiment: Octet

T1 sequence (Q15116 25-167 limits assumed): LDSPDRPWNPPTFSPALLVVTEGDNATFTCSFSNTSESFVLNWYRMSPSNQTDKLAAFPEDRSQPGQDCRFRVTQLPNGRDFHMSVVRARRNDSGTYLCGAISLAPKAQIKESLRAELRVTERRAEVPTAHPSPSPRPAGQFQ

| Binder | Kd | koff | kon |
| --- | --- | --- | --- |
| B1 | 32.1 nM | 0.00407 s⁻¹ | 127000 M⁻¹ s⁻¹ |
| B2 | 40 nM | 0.00472 s⁻¹ | 118000 M⁻¹ s⁻¹ |
| B3 | 52.5 nM | 0.00545 s⁻¹ | 104000 M⁻¹ s⁻¹ |
| B4 | 73.4 nM | 0.00863 s⁻¹ | 118000 M⁻¹ s⁻¹ |
| B5 | 162 nM | 0.0204 s⁻¹ | 126000 M⁻¹ s⁻¹ |
| B6 | 50.2 nM | 0.00634 s⁻¹ | 126000 M⁻¹ s⁻¹ |
| B7 | 51.3 nM | 0.00534 s⁻¹ | 104000 M⁻¹ s⁻¹ |
| B8 | 45.8 nM | 0.00546 s⁻¹ | 119000 M⁻¹ s⁻¹ |
| B9 | 47.9 nM | 0.00597 s⁻¹ | 125000 M⁻¹ s⁻¹ |
| B10 | 36.9 nM | 0.00425 s⁻¹ | 115000 M⁻¹ s⁻¹ |
| B11 | 50.4 nM | 0.00534 s⁻¹ | 106000 M⁻¹ s⁻¹ |
| B12 | 54.9 nM | 0.00688 s⁻¹ | 125000 M⁻¹ s⁻¹ |
| B13 | 37.4 nM | 0.00475 s⁻¹ | 127000 M⁻¹ s⁻¹ |
| B14 | 48.5 nM | 0.00529 s⁻¹ | 109000 M⁻¹ s⁻¹ |
| B15 | 27.2 nM | 0.00371 s⁻¹ | 137000 M⁻¹ s⁻¹ |
| B16 | 34 nM | 0.00422 s⁻¹ | 124000 M⁻¹ s⁻¹ |
| B17 | 36.8 nM | 0.00454 s⁻¹ | 123000 M⁻¹ s⁻¹ |
| B18 | 44.2 nM | 0.00537 s⁻¹ | 122000 M⁻¹ s⁻¹ |
| B19 | 40 nM | 0.00557 s⁻¹ | 139000 M⁻¹ s⁻¹ |
| B20 | 34 nM | 0.00358 s⁻¹ | 105000 M⁻¹ s⁻¹ |
| B21 | 46.9 nM | 0.00567 s⁻¹ | 121000 M⁻¹ s⁻¹ |
| B22 | 47.1 nM | 0.00514 s⁻¹ | 109000 M⁻¹ s⁻¹ |
| B23 | 35.6 nM | 0.00432 s⁻¹ | 121000 M⁻¹ s⁻¹ |

Target: T1, human PD-1-His
Experiment: Octet
Remark: another data set of the same source

| Binder | Kd | koff | kon |
| --- | --- | --- | --- |
| B24 | 59.1 nM | 0.00783 s⁻¹ | 132000 M⁻¹ s⁻¹ |
| B25 | 59.6 nM | 0.00818 s⁻¹ | 137000 M⁻¹ s⁻¹ |
| B26 | 61 nM | 0.00827 s⁻¹ | 136000 M⁻¹ s⁻¹ |
| B27 | 48 nM | 0.00674 s⁻¹ | 140000 M⁻¹ s⁻¹ |
| B28 | 41.5 nM | 0.00574 s⁻¹ | 138000 M⁻¹ s⁻¹ |
| B29 | 62.5 nM | 0.00701 s⁻¹ | 112000 M⁻¹ s⁻¹ |
| B30 | 59.9 nM | 0.00774 s⁻¹ | 129000 M⁻¹ s⁻¹ |
| B31 | 45.8 nM | 0.00505 s⁻¹ | 110000 M⁻¹ s⁻¹ |
| B32 | 42.4 nM | 0.00619 s⁻¹ | 146000 M⁻¹ s⁻¹ |
| B33 | 112 nM | 0.0129 s⁻¹ | 115000 M⁻¹ s⁻¹ |
| B34 | 43.9 nM | 0.00544 s⁻¹ | 124000 M⁻¹ s⁻¹ |
| B35 | 74 nM | 0.00808 s⁻¹ | 109000 M⁻¹ s⁻¹ |
| B36 | 30.9 nM | 0.00464 s⁻¹ | 150000 M⁻¹ s⁻¹ |
| B37 | 35.9 nM | 0.00458 s⁻¹ | 128000 M⁻¹ s⁻¹ |
| B38 | 37.6 nM | 0.00494 s⁻¹ | 131000 M⁻¹ s⁻¹ |
| B39 | 49.2 nM | 0.00692 s⁻¹ | 141000 M⁻¹ s⁻¹ |
